From the supplement of paper PMC9170038

Tested on: MS2 coat protein
Assay: apparent KD of MS2 coat protein; designed switch direction (-1 OFF switch, 1 ON switch): -1; higher = weaker reporter binding
Summary of the method: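 Each step of the titration lasted 0.8–1.5 h at the lowest concentration and 10–20 min at the highest. The protein, SNAP-549-labelled MS2 coat protein, went from 0.7 or 1.5 nM doubling to 3 µM over RNA switches transcribed on Illumina chips by stalled E. coli RNA polymerase. Normalised cluster fluorescence was curve-fitted, and the per-design median over clusters is given as apparent KD.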

[1] = Eterna round: R95, input ligand: microRNA oligo, concentration not stated
[2] = input ligand: microRNA oligo, concentration not stated

AAUCCACAUGAGGAUCACCCAUGUCAGGAUAUCGCGCGCGCGUUUUCGGUCUUUCGCGCGAGAAGGGACGGCUG (puzzle: Exclusion 1)
apparent KD of MS2 coat protein [1]: 16.3 nM

UAGAAUCGAGGAUAUACAUGAGGAUCACCCAUGUGUUGCCGCGUGAUGUGUUUGUCAGGUAGAAGGCGAUUAUA [Exclusion 3 - Mod of Jieux's Gilly Gone Silly 23 v.8] (puzzle: Exclusion 3)
apparent KD of MS2 coat protein [1]: 63.8 nM

CAAUUCCGAGGAUAUACAUGAGGAUCACCCAUGUCGGGCCUCAGCGUUUAGCGCCUAAGUAGAAGGUGGGUUUC [JL Riri mod 4] (Eterna round: R96, puzzle: Exclusion 3)
apparent KD of MS2 coat protein (input ligand: FMN 200 uM): 47.1 nM | apparent KD of MS2 coat protein [2]: 31.7 nM | apparent KD of MS2 coat protein (input ligand: none): 46.6 nM

GCAGAGGUAGUGAGGAUAUGCUCUACCUCGGUAGAGCAGAAGGCACAUGAGGAUCACCCAUGUGAUUCUUCUGC [Omei Ex4B B9] (Eterna round: R97, puzzle: Brourd's mod of Exclusion 4)
apparent KD of MS2 coat protein (input ligand: FMN 200 uM): 15 nM | apparent KD of MS2 coat protein (input ligand: none): 13.2 nM

CCGCAUAAGCAGGAUAUCGUAUCGGAUACGAUACGAGAAGGGUUUACAUGAGGAUCACCCAUGUUCCUUAGCGG [Fiskers Ex 6 - 31] (puzzle: Exclusion 6)
apparent KD of MS2 coat protein [1]: 26.2 nM

UUUACAAGCUAUUGAUCCCACAUGAGGAUCACCCAUGUUCAUGGCCGUGAGGCUAGGUAUACAAUUGCUCGUCUUAU [mod-JR] (Eterna round: R97, puzzle: Sensor, turn-off variant 1)
apparent KD of MS2 coat protein (input ligand: FMN 200 uM): 59.8 nM | apparent KD of MS2 coat protein (input ligand: none): 78.7 nM

UUUUACAGGCUUAGAUCCUACAUGAGGAUCACCCAUGUGGUGGCGUGUCGUGAGACAUGCCACUAAGCUCGUCUUGU [JL TOV1 3.73] (Eterna round: R97, puzzle: Sensor, turn-off variant 1)
apparent KD of MS2 coat protein (input ligand: FMN 200 uM): 98.3 nM | apparent KD of MS2 coat protein (input ligand: none): 103 nM

AAAAAGGCAGGAUAUACGAGUCAAAGAAAAGACAAAAGGAGACAUGAGGAUCACCCAUGUAGAAGGGCCAAAAA [Fiskers exclusion D2 62% 5] (Eterna round: R96, puzzle: Exclusion 2)
apparent KD of MS2 coat protein (input ligand: FMN 200 uM): 85.2 nM | apparent KD of MS2 coat protein [2]: 20.6 nM | apparent KD of MS2 coat protein (input ligand: none): 25.3 nM

CAAUAUUAUCGAGGAUAUCCUAUUGUAUUUCUGGGAGAAGGCGGACUCAACAUGAGGAUCACCCAUGUAAGACGGGUACUAGAU [Ex NG1 #20] (Eterna round: R96, puzzle: Exclusion NG 1)
apparent KD of MS2 coat protein (input ligand: FMN 200 uM): 119 nM | apparent KD of MS2 coat protein [2]: 81 nM | apparent KD of MS2 coat protein (input ligand: none): 98.5 nM

UACAUGAGGAUCACCCAUGUCGGGUAAACGAAGGUUACUCAAGAGGAUAUAAAACCGAAAGGGUUUUAGAAGGCUUUUCCUCGA [Eternabot solution 27] (Eterna round: R96, puzzle: Exclusion NG 3)
apparent KD of MS2 coat protein (input ligand: FMN 200 uM): 92.3 nM | apparent KD of MS2 coat protein [2]: 46 nM | apparent KD of MS2 coat protein (input ligand: none): 86.7 nM

CUUUUGGCAGGAUAUGCUUUUUUUGACAUGAGGAUCACCCAUGUGAUGCAUUUUGGGUUUGCAGAAGGGCCUGAGU [JR_E5_Sub036] (puzzle: Exclusion 5)
apparent KD of MS2 coat protein [1]: 56.9 nM

AUUAGUAUCUAGGAUAUCUAGUACAUAGUAUCUAGAGAAGGAGAUACAUGAGGAUCACCCAUGUUCUGUGUUCU [Exclusion 6 - 1:d] (puzzle: Exclusion 6)
apparent KD of MS2 coat protein [1]: 20.3 nM

UUCACAUGGACAUAAGAUCACAUGAGGAUCACCCAUGUGAAUAACAAGCUUUUUGCUCGUCUUAUGUCCAAUAAUAG [Stov1/14-A2] (Eterna round: R97, puzzle: Sensor, turn-off variant 1)
apparent KD of MS2 coat protein (input ligand: FMN 200 uM): 15.8 nM | apparent KD of MS2 coat protein (input ligand: none): 13.3 nM

UGAUCUAGCGGAGGAUAUACAUGAGGAUCACCCAUGUAUAGGCCAUGUGGUGACACGUGGAACAUGUAGAAGGCCGCUAGAUCU [JL ENG2 3.82] (Eterna round: R96, puzzle: Exclusion NG 2)
apparent KD of MS2 coat protein (input ligand: FMN 200 uM): 287 nM | apparent KD of MS2 coat protein [2]: 73.3 nM | apparent KD of MS2 coat protein (input ligand: none): 77.6 nM
